Source: article PMC8304084, “A Concerted Action of UBA5 C-Terminal Unstructured Regions Is Important for Transfer of Activated UFM1 to UFC1” (International Journal of Molecular Sciences, 2021)

Assays:
Assay in all cases: ITC; VP-ITC, 25 °C; UBA5 peptides (~400 µM) titrated into 20–25 µM binding partner; 25 mM HEPES pH 7.5, 100 mM NaCl; one-site model; a single profile for each interaction
Conditions in all cases: both partners purified
[1] = target: T1, Full length UFM1, residues 2–83 (UniProt P61960 2-83)
T1 construct: N-terminal cloning artefact left after TEV cleavage (vector pET39_Ub19); UFM1 (ubiquitin fold modifier 1), residues 2–83 (processed form ending at Gly83); also called Ubiquitin fold modifier 1; source: E. coli T7 Express, purified (His Trap IMAC, TEV cleavage, reverse IMAC, Superdex gel filtration); not shown: modified ubiquitin tag (Ub19), N-terminal, cleaved

[2] = target: T2, GABARAPL2, residues 3–116 (UniProt P60520 3-116)
T2 construct: N-terminal cloning artefact left after TEV cleavage (vector pET39_Ub19); source: E. coli T7 Express, purified (His Trap IMAC, TEV cleavage, reverse IMAC, Superdex gel filtration); not shown: modified ubiquitin tag (Ub19), N-terminal, cleaved

LC3B, residues 5–120 = LC3B, residues 5–120 (UniProt Q9GZQ8 5-120)

Measured: Kd

T1 sequence (P61960 other isoform, or with tags, fused parts or gaps): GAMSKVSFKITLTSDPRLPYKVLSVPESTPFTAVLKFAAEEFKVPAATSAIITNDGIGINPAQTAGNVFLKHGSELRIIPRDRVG
T2 sequence (P60520 other isoform, or with tags, fused parts or gaps): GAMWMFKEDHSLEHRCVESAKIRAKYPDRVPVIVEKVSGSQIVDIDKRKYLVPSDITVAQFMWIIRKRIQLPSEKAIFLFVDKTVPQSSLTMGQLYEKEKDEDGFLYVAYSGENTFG

B1: UBA5 C-terminal region R2, residues 359–376 (peptide)
chain: GAMGPVPDLPEGITVAYTIPK
notes: N-terminal cloning artefact left after TEV cleavage (vector pET39_Ub19); also called isolated R2 peptide; source: E. coli T7 Express, purified (His Trap IMAC, TEV cleavage, reverse IMAC, Superdex gel filtration); not shown: modified ubiquitin tag (Ub19), N-terminal, cleaved
> 100 µM: [1] | [2] | LC3B, residues 5–120
